From the supplement of paper PMC7125110
± gives the standard error. This sample holds only a part of the variants without activity.

B1: glmS ribozyme (parent)
chain: AUAAAAGCGCCAGAACUACAGAAAUGUAGUUGACGAGGAGGAGGUUUAUCGAAUUUUCGGCGGAUGCCUCCAAA

Experiments:
Settings in all cases: with glucosamine-6-phosphate
glucosamine-6-phosphate [1] = variants of: B1; assay: self-cleavage kobs at 40 uM GlcN6P; higher = faster cleavage; RNA array
Summary of the method: (§1)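 Ribozyme variants carrying barcodes were transcribed in situ on sequenced MiSeq chips by E. coli RNA polymerase and tracked at 37 °C with a hybridised Cy3 probe. They were exposed to 40 μM to 10 mM glucosamine-6-phosphate in HEPES/KCl/Mg(OAc)2 buffer. kobs came from exponential decay fits of normalised per-tile medians, and kcat and KM from weighted Michaelis–Menten fits.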

glucosamine-6-phosphate [2] = variants of: B1; assay: self-cleavage kobs at 10000 uM GlcN6P; higher = faster cleavage; RNA array
Summary of the method: as §1

glucosamine-6-phosphate [3] = variants of: B1; assay: self-cleavage kobs at 640 uM GlcN6P; higher = faster cleavage; RNA array
Summary of the method: as §1

glucosamine-6-phosphate [4] = variants of: B1; assay: self-cleavage kobs at 160 uM GlcN6P; higher = faster cleavage; RNA array
Summary of the method: as §1

glucosamine-6-phosphate [5] = variants of: B1; assay: self-cleavage kobs at 2500 uM GlcN6P; higher = faster cleavage; RNA array
Summary of the method: as §1

Variant	self-cleavage kobs at 40 uM GlcN6P (glucosamine-6-phosphate [1]) [s⁻¹]	self-cleavage kobs at 10000 uM GlcN6P (glucosamine-6-phosphate [2]) [s⁻¹]	self-cleavage kobs at 640 uM GlcN6P (glucosamine-6-phosphate [3]) [s⁻¹]	self-cleavage kobs at 160 uM GlcN6P (glucosamine-6-phosphate [4]) [s⁻¹]	self-cleavage kobs at 2500 uM GlcN6P (glucosamine-6-phosphate [5]) [s⁻¹]
AUAAAAGCGCCAGAACUACAGAAAUGUAGUUGACGAGUAGGAGGUUUAUCGAAUUUUCGGAGGAUGUCUCCAAA [G38U C61A C67U]	8.86e-05 ± 3e-05	8.02e-05 ± 2.6e-05	–	–	–
AUAAAAGCGCCACAACUACAGAAAUGUAGUCGACGAGGAGGAGGUUUAUCGAAUUUUCGGCGGAUGCCUCUAAA [G13C U31C C71U]	4.32e-05 ± 2e-05	0.00114 ± 0.00023	–	–	–
AUAAAAGCGCCAGAACUACAGAAAUGUAUUUGACAAGGAGGAGGUUUGUCGACUUUUCGGCGGAUGCCUCCAAA [G29U G35A A48G A53C]	< 1e-05	–	< 1e-05	–	–
AUAAAAGCGCCAGAACUACAGAAAUGUAGUUGACGCGGAGGAGGUUUAUCGAAUUUUCGGCGGACGCCUCCAAA [A36C U65C]	< 1e-05	< 1e-05	–	< 1e-05	< 1e-05
AUAAAAGCGCCCGAACUACAGAAAUGUAGUUGACGAGGAGGAGGUUUAACGAAUUUUCGGCGGAUGCCUCCAAA [A12C U49A]	< 1e-05	–	–	< 1e-05	–
AUAAAAGCGCCAGUACUACAGAAAUGUAGUUGACGAGGAGGAGGUUUAUGGAAUUUUGGGCGGAUGCCUCCAAA [A14U C50G C58G]	0.000124 ± 3.9e-05	0.000108 ± 2.7e-05	–	–	–
AUAAAGGCGCCAGAACUACAGAAAUGUAGUUGACGCGGAGGAGGUUUAUCUAAUUUUCGGCGGAUGCCUCCAAA [A6G A36C G51U]	< 1e-05	< 1e-05	–	–	–
AUAAAAGCGCCAGAACUACAGAAAUGUAGUUGACUAGGAGGAUGUUUAUCGAAAUUUCGGCGGAUGCCUCCAAA [G35U G43U U54A]	< 1e-05	< 1e-05	–	–	–
AUAAAAGCGGCGGAACUACAGAAAUGUAGUUGACGAGGAGGAGGUUUAUCGAAUUUUCUGGGGAUGCCUCCAAA [C10G A12G G59U C61G]	< 1e-05	–	–	–	–
AUAAAAGCGCCAGAAGUACAGAAAUGUAGUAGACCAGGAAGAGGUUUAUCGAAUUUUCGGCGGAUGCCUCCAAA [C16G U31A G35C G40A]	< 1e-05	< 1e-05	–	–	< 1e-05
AUAAAAGCGCCAGAACUACAGAAAUGUAGUUUACGAGGAGGAGGUUUAUCGAAUUUUCGGCGUAUGCCUCAAAA [G32U G63U C71A]	< 1e-05	< 1e-05	< 1e-05	–	–
AUAAAAGCGCCAGAACUACAGAAAUGUAGUUGACGAGGGGGAGGUUUAUUGAAUUUUUGGCGGAUGCCUCCAAA [A39G C50U C58U]	< 1e-05	–	–	–	–
AUAAAAGCGCCAGAAUUACAGAAAUGUAGUUGACGAGGAGGAGGUUUAUCGAAUUUUCGGGGGAGGCCUCCAAA [C16U C61G U65G]	< 1e-05	–	–	–	–
AUAAAAGCGCCAGAACUACAGAAAUGUAGUGGACGAGGAGGAUGUUUAUCGAAAUUUCGGCGGAUGCCUCCAAA [U31G G43U U54A]	< 1e-05	–	–	–	–
AUAAAAACGCCAGAACUACAGAAAUGUAGUUGACCAGGAGGAGGUUUAUCGAAUUUUCAGCGGAUGGCUCCAAA [G7A G35C G59A C67G]	< 1e-05	–	< 1e-05	< 1e-05	< 1e-05
AUAAAAGCGCCAGAACUACAGAAAUGUAGUUAACGAGGAGGAGGUUUAUCGAAUGUUCGGCGGAUGCCUCCAAA [G32A U55G]	4.93e-05 ± 1.7e-05	0.00326 ± 0.00054	0.000327 ± 5.7e-05	–	0.000627 ± 0.00014
